This note sets out measurements from article PMC2965767, “Identification and Genome-Wide Prediction of DNA Binding Specificities for the ApiAP2 Family of Regulators from the Malaria Parasite”.

In the data set the target is PF11_0091 D1 (PF3D7_1107800, AP2 domain transcription factor, putative) (Plasmodium falciparum, UniProt Q8IIS4 1486-1548). Description: EMSA; 5 mM MgCl2 with 10 mM EDTA; LightShift buffer, 2.5% glycerol, 50 mM KCl, 0.05% NP-40, 50 ng/uL poly(dI-dC); room temperature, 20 min. As to conditions: tags: N-terminal GST (pGEX-4T1), kept; label: 5' biotin. On the technique in general: A gel shift assay detects complexes by their altered migration in electrophoresis.

B1: gbp130 (dsDNA)
DNA 1: AAGCAAATAAGATATTCCAAAAAAAAGTATTCTAATGTGTACTAATAAACCTTTATATAA
DNA 2: TTATATAAAGGTTTATTAGTACACATTAGAATACTTTTTTTTGGAATATCTTATTTGCTT
As for B1, the binding result is on record as “binds”.
